Measured values reported in patent US20180148497A1.

What was measured:
[1] = target: cell surface Env of HIV-1 infected (p24+) CD4+ T cells (IMCs subtype AE CM235, subtype B BaL, subtype C 1086.C, as a group); assay: flow cytometry, negative control staining of p24+ IMC-infected CD4+ T cells (FIG. 27)
[2] = target: cell surface Env of HIV-1 infected (p24+) CD4+ T cells (IMCs subtype AE CM235, subtype B BaL, subtype C 1086.C, as a group); assay: flow cytometry, indirect staining of p24+ CD4+ T cells infected with BaL, CM235 or 1086.C IMC (FIG. 27)
[3] = target: cell surface Env of HIV-1 infected (p24+) CD4+ T cells (IMCs subtype AE CM235, subtype B BaL, subtype C 1086.C, as a group); assay: flow cytometry, staining of p24+ CD4+ T cells infected with BaL, CM235 or 1086.C IMC (FIG. 27)

## Palivizumab mAb (anti-RSV) (antibody)
[1]
  % of HIV-1 infected (p24+) CD4+ T cells recognized: < 5%

## 7B2 mAb (anti-gp41 cluster I) (antibody)
[2]
  % of HIV-1 infected (p24+) CD4+ T cells recognized: 24 to 38%

## HIV-1 × Fluorescein Bi-Specific Diabody (7B2 × 4420) (bispecific antibody)
[3]
  % of HIV-1 infected (p24+) CD4+ T cells recognized: 66 to 78%

## secondary conjugated Abs (secondary fluoresceinated anti-human IgG Abs) (antibody)
[1]
  % of HIV-1 infected (p24+) CD4+ T cells recognized: < 5%
